Experimental data from paper PMC11758712.

Legend:
[1] = biological target: monomeric ACE2 (a.a 19-611), C-terminally His-tagged (human) (UniProt Q9BYF1); experiment: mass photometry
[2] = biological target: Abdala (SARS-CoV-2 spike receptor-binding domain vaccine antigen produced in Pichia pastoris) (SARS-CoV-2 (Wuhan-Hu-1)) (UniProt P0DTC2); experiment: mass photometry

Sequence of monomeric ACE2 (a.a 19-611), C-terminally His-tagged (human) (Q9BYF1 19-611): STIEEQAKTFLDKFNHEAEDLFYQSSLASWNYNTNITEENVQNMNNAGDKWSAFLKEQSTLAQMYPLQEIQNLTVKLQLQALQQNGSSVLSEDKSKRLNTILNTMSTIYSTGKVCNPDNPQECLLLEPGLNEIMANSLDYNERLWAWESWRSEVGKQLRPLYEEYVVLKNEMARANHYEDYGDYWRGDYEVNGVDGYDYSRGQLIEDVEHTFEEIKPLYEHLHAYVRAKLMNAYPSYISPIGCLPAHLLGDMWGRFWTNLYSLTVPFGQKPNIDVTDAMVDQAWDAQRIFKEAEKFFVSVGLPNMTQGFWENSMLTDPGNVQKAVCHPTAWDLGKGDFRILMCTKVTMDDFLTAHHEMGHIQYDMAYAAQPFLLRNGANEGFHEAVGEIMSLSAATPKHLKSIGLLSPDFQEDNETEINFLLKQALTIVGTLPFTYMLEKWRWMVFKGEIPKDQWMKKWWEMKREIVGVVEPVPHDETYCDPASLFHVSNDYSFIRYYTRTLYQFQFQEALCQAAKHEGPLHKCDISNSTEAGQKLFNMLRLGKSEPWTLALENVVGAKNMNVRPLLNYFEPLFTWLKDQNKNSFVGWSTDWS

Abdala (SARS-CoV-2 spike receptor-binding domain vaccine antigen produced in Pichia pastoris) (from UniProt P0DTC2 319-541) (domain or fragment)
Kd [1]: 0.0555 µM | percent dimeric species [2]: 5.6% | stoichiometry N [2]: 2
